Data from US20250154268A1 (NONA BIOSCIENCES SUZHOU, published 2025).
Like-named read-outs stand apart in the source and are kept apart here.

Legend:
[1] = biological target: T1, human CD25 (human, UniProt P01589 22-272); test: flow cytometry, SU-DHL-1 cells
T1 construct: whole, on cells; Always presented on cells; also called huCD25; IL2Rα
T1 sequence (looked up): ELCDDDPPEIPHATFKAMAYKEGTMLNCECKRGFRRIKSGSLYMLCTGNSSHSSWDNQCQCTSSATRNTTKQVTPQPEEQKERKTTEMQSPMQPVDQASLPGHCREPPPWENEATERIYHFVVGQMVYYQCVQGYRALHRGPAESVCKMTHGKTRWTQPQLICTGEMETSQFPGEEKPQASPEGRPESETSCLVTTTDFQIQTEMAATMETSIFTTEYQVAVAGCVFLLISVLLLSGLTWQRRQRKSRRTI
Protocol: (§1) Briefly, the CHOK1-huCD25 cells and HEK293-cynoCD25 cells were digested, the SU-DHL-1 cells, Karpas299 cells, Treg cells and Teff cells were collected, and the cells were resuspended in PBS containing 2% BSA. The cells were adjusted to a cell density of 1×10⁶ cells/mL, respectively. […] The cells were incubated at 4° C. for 1 hour in the dark. After the incubation, the cells were rinsed twice by adding pre-chilled PBS containing 2% BSA at 100 μL/well, and centrifuged at 500 g at 4° C. for 5 minutes, and the supernatant was discarded. […] The cells were washed twice by adding pre-chilled PBS containing 2% BSA at 100 μL/well, and centrifuged at 500 g at 4° C. for 5 minutes, and the supernatant was discarded. Finally, the cells were resuspended in pre-chilled PBS containing 2% BSA at 200 μL/well, and the fluorescence signal values were read using a BD CantoII flow cytometer.

[2] = biological target: T1, human CD25; test: flow cytometry, Karpas299 cells
[3] = biological target: T2, cynomolgus monkey CD25 (cynomolgus monkey, UniProt H6WS54 22-272); test: flow cytometry, HEK293-cynoCD25 cells
T2 construct: whole, on cells; also called cynoCD25
T2 sequence: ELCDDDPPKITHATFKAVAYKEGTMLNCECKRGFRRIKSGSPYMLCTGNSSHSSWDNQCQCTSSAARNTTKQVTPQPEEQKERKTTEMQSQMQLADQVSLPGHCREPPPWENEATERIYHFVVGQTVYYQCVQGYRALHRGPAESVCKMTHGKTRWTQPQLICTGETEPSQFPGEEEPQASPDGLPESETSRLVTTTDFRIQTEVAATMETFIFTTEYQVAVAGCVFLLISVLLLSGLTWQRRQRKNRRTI
Protocol: as §1

[4] = biological target: T1, human CD25; test: flow cytometry, Karpas299 cells; remark: listed apart in the source
Protocol: as §1

[5] = biological target: T2, cynomolgus monkey CD25; test: flow cytometry, HEK293-cynoCD25 cells; remark: listed apart in the source
Protocol: as §1

[6] = biological target: T1, human CD25; test: flow cytometry, SU-DHL-1 cells; remark: listed apart in the source
Protocol: as §1

[7] = biological target: T1, human CD25; test: flow cytometry, Karpas299 cells; remark: listed apart in the source
[8] = biological target: T1, human CD25; test: flow cytometry, SU-DHL-1 cells; remark: listed apart in the source
Protocol: as §1

[9] = biological target: T1, human CD25; test: flow cytometry, Karpas299 cells; remark: listed apart in the source
[10] = biological target: T2, cynomolgus monkey CD25; test: flow cytometry, HEK293-cynoCD25 cells; remark: listed apart in the source
Protocol: as §1

[11] = biological target: T1, human CD25; test: flow cytometry, SU-DHL-1 cells; remark: listed apart in the source
Protocol: as §1

B1: PR006771 (antibody, human IgG1, kappa, V domains shown)
VH: QVQLQGSGPGLVKPSGTLSLTCAVSPGSISSSNWWNWVRQPPGKGLEWIGEIYHRGSTNYNPSLKSRVTISVDKSKNQFSLKLSSVTAADTAVYYCTHYYYDSSGYYYGYWGQGTLVTVSS
VL: DIVMTQSPLSLPVTPGEPASISCRSSQSLLHRRGYNYVDWYLQKPGQSPQLLIYLGSNRASGVPDRFSGSGSGTDFTLKISRVEAEDVGVYYCMQALQTPLTFGGGTKVEIKR
notes: PTM variant of PR005436 (VH:D26P); human IgG1
EC50 [1]: 4.56 nM | Maximum MFI [1]: 29800 MFI | EC50 [2]: 40 nM | Maximum MFI [2]: 8970 MFI | EC50 [3]: 5.35 nM | Maximum MFI [3]: 136000 MFI

B2: PR006927 (antibody, human IgG1, kappa, V domains shown)
VH: QVQLQESGPGLVKPSETLSLTCTVSGGSIRSYYWSWIRQPPGKGLEWIGYIYYSGSTNYNPSLKSRVTISVDTSKNQFSLKLSSVTAADTAVYYCARDILTGYSDWFFDLWGRGTLVTVSS
VL: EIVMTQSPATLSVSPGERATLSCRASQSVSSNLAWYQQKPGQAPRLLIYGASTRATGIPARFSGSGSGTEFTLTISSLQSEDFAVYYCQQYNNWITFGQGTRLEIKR
notes: Fully human recombinant IgG1, kappa; also called 113D5A1
EC50 [4]: 20.3 nM | Maximum MFI [4]: 10000 MFI | EC50 [5]: 17.5 nM | Maximum MFI [5]: 90100 MFI | EC50 [6]: 4.68 nM | Maximum MFI [6]: 27300 MFI

B3: PR006122 (antibody, human IgG1, kappa, V domains shown)
VH: QVQLVESGGGVVQPGRSLRLSCAASGFTFSSYYMHWVRQAPGKGLEWVAVIWYDGSNKYYADSVKGRFTISRDNSKNTLYLQMNSLRAEDTAVYYCAGAGKGELPFDYWGQGTLVTVSS
VL: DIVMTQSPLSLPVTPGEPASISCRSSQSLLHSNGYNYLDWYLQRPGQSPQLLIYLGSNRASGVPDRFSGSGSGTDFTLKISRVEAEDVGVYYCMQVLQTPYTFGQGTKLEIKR
notes: Fully human recombinant IgG1, kappa; also called 189F2G11
EC50 [4]: 1.21 nM | Maximum MFI [4]: 18300 MFI | EC50 [5]: 1.63 nM | Maximum MFI [5]: 82000 MFI | EC50 [6]: 1.53 nM | Maximum MFI [6]: 43900 MFI

B4: PR006928 (antibody, human IgG1, kappa, V domains shown)
VH: QVQLVQSGGGVVQPGRSLRLSCAASGFTFSNYDMHWVRQAPGKGLEWVAVIWYDGINKHYTDSVKGRFTMSRDNFKNTLHLQMNSLRAEDTAIYYCAREGAGDAFDIWGQGTMVTVSS
VL: DIQMTQSPSTLSASVGDRVTITCRASQSFDNWLAWYQQKPGKAPKLLIYKASSLESGVPSRFSGSGSGTEFTLTISSLQPDDFATYYCQQYNSYSTFGQGTRLEIKR
notes: Fully human recombinant IgG1, kappa; also called 150G7E2
EC50 [7]: 20 nM | Maximum MFI [7]: 10600 MFI | EC50 [8]: 1.85 nM | Maximum MFI [8]: 34700 MFI

B5: PR008014 (antibody, human IgG1, kappa, V domains shown)
VH: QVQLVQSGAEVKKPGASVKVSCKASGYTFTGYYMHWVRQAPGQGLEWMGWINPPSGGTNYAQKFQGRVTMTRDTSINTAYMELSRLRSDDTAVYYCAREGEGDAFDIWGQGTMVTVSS
VL: DFQMTQSPSTLSASVGDRVTITCRASQSISSWLAWYQQKPGKAPKLLIYEASSLKSGVPSRFSGSESGTEFTLTISSLQPDDFATYYCHQYLSYSTFGQGTKVEIKR
notes: PTM variant of PR006931 (VH: N54P, S60Y); human IgG1
EC50 [9]: 30 nM | Maximum MFI [9]: 9510 MFI | EC50 [10]: 1.63 nM | Maximum MFI [10]: 31500 MFI | EC50 [11]: 1.36 nM | Maximum MFI [11]: 32800 MFI

B6: PR006984 (antibody, human IgG1, kappa, V domains shown)
VH: QVHLVESGGGVVQPGRSLRLSCAASGFTFSKYDMHWVRQAPGKGLEWVAVVWFDGINKSYIDSVRGRFTISRDNSKSTLYLQMNSLRDDDTAVYYCAREGVGDAFDIWGQGAMVTVSS
VL: DIQMTQSPSTLSASVGDRVTITCRASQSISSWLAWYQQKPGKAPKLLIYKASSLESGVPSRFSGSESGTEFTLTITSLQPNDFATYYCQQYNSYSTFGQGTRLEIKR
notes: Fully human recombinant IgG1, kappa; also called 180F6E8
EC50 [7]: 55 nM | Maximum MFI [7]: 8720 MFI | EC50 [8]: 6 nM | Maximum MFI [8]: 35300 MFI

B7: PR008016 (antibody, human IgG1, kappa, V domains shown)
VH: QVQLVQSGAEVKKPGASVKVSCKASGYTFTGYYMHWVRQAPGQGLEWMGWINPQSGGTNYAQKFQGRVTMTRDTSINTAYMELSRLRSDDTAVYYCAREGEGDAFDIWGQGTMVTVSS
VL: DFQMTQSPSTLSASVGDRVTITCRASQSISSWLAWYQQKPGKAPKLLIYEASSLKSGVPSRFSGSESGTEFTLTISSLQPDDFATYYCHQYMSYSTFGQGTKVEIKR
notes: PTM variant of PR006931 (VH:N54Q, S60Y); human IgG1
EC50 [9]: 40 nM | Maximum MFI [9]: 8600 MFI | EC50 [10]: 2.25 nM | Maximum MFI [10]: 27900 MFI | EC50 [11]: 4.02 nM | Maximum MFI [11]: 34500 MFI

B8: PR006931 (antibody, human IgG1, kappa, V domains shown)
VH: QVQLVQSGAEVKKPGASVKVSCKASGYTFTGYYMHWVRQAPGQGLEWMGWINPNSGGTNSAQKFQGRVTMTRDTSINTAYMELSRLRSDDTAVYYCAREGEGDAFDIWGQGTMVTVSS
VL: DFQMTQSPSTLSASVGDRVTITCRASQSISSWLAWYQQKPGKAPKLLIYEASSLKSGVPSRFSGSESGTEFTLTISSLQPDDFATYYCHQYNSYSTFGQGTKVEIKR
notes: Fully human recombinant IgG1, kappa; also called 171B2D12
EC50 [4]: 40 nM | Maximum MFI [4]: 9450 MFI | EC50 [5]: 6.25 nM | Maximum MFI [5]: 152000 MFI | EC50 [6]: 8.48 nM | Maximum MFI [6]: 33700 MFI
